# Source: paper PMC11652881
# Columns and labels:
# [1] = molecular target: recombinant wild-type cardiac actin (WTRec-ACTC), as F-actin filaments (human) (UniProt P68032); assay: co-sedimentation; 7 uM F-actin with 0.1 to 2 uM tropomyosin in 100 mM KCl, 5 mM MgCl2, 20 mM Tris pH 8, 1 h at 25 C; 100,000 rpm 20 min (TLA100); Tm in the pellet by SDS-PAGE densitometry, normalised 0-100; fit to specific binding with Hill slope
# [2] = molecular target: recombinant wild-type cardiac actin (WTRec-ACTC), as F-actin filaments (human) (UniProt P68032); assay: TIRF microscopy of labelled tropomyosin binding along actin filaments; rhodamine phalloidin-labelled ACTC filaments held on bovine ventricular HMM (0.5 mg/ml) on a nitrocellulose-coated coverslip; Alexa-Tm added while recording at 10 frames per second; fluorescence along a filament normalised from 1 to 100 percent; elongation rate = slope of the binding curve from 0 to 15 s
Kd [1],Elongation Rate [2],Substance
0.533 µM,–,tropomyosin purified from bovine ventricular ether powder (from UniProt Q5KR49 1-284)
–,4.56 s⁻¹,Alexa488-labeled tropomyosin (bovine ventricular tropomyosin modified on Cys-190) (from UniProt Q5KR49 1-284) (natural protein)
